From patent publication US20260285998 (published 2026) come the findings set out here.

One may read the EC50 as the concentration that produces a half-maximal response. The low end stands for higher potency in that assay, the high end for lower potency in that assay.

What all share (assay): FACS
For test [1], the target named is T1, human BCMA (cell surface) (human).
T1 chain: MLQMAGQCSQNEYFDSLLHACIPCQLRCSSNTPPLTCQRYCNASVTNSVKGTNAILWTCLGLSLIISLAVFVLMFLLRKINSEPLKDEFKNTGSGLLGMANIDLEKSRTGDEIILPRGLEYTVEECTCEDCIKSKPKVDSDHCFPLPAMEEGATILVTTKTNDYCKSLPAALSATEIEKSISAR

Another test concerns the target T2, human BCMA R27P (human).
T2 chain: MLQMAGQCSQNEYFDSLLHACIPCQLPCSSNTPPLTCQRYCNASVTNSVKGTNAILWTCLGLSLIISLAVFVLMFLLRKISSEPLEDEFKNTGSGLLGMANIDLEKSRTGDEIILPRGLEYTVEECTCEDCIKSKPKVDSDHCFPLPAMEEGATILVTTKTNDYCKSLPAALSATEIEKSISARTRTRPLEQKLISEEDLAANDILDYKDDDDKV

Another test concerns the target T3, human BCMA S30del (human).
T3 chain: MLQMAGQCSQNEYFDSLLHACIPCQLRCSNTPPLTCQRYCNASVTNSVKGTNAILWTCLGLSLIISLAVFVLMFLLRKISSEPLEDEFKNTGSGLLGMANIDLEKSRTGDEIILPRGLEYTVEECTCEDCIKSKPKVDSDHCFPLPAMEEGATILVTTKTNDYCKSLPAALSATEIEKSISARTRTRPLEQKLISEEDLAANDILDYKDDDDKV

B1: P1AG7409 BCMA arm (antibody, V domains shown)
VH: QVQLVQSGAEVKKPGASVKVSCKASGYTFTNYWMHWVRQAPGQGLEWMGIIHPNSGSTNYNEKFQGRVTMTRDTSTSTVYMELSSLRSEDTAVYYCARGIYDYPFAYWGQGTLVTVSS
VL: DIQMTQSPSSLSASVGDRVTITCRASESVSIHGTHLMHWYQQKPGKAPKLLIYAASNLESGVPSRFSGSGSGTDFTLTISSLQPEDFATYYCQQSIEDPYTFGGGTKVEIK
For the molecule B1, a half-maximal response in test [1] (EC50) required 21.6 nM. This counts as double-digit nanomolar.

B2: P1AG7400 BCMA arm (antibody, V domains shown)
VH: QVQLVQSGAEVKKPGASVKVSCKASGYTFTNYWMHWVRQAPGQGLEWMGIIHPNSGSTNYNEKFQGRVTMTRDTSTSTVYMELSSLRSEDTAVYYCARGIYDYPFAYWGQGTLVTVSS
VL: DIQMTQSPSSLSASVGDRVTITCRASESVSIHGTHLMHWYQQKPGKAPKLLIYAASSLQSGVPSRFSGSGSETDFTLTISSLQPEDFATYYCQQSIEDPYTFGGGTKVEIK
B2 showed an EC50 in test [1] of 41.5 nM.

B3: Teclistamab BCMA arm (antibody, V domains shown)
VH: QLQLQESGPGLVKPSETLSLTCTVSGGSISSGSYFWGWIRQPPGKGLEWIGSIYYSGITYYNPSLKSRVTISVDTSKNQFSLKLSSVTAADTAVYYCARHDGAVAGLFDYWGQGTLVTVSS
VL: SYVLTQPPSVSVAPGQTARITCGGNNIGSKSVHWYQQPPGQAPVVVVYDDSDRPSGIPERFSGSNSGNTATLTISRVEAGDEAVYYCQVWDSSSDHVVFGGGTKLTVLG
Regarding B3, the binding result in the test with human BCMA R27P and with human BCMA S30del was “no binding” each time.

B4: P1AG7422 BCMA arm (antibody, V domains shown)
VH: EVQLVESGGGLVKPGGSLRLSCAASGFTFSNAWMDWVRQAPGKGLEWIAQITAKSNNYATYYAAPVKGRFTISRDDSKNTLYLQMNSLKTEDTAVYYCTDDGYHWGQGTLVTVSS
VL: AIQMTQSPSSLSASVGDRVTITCRASEDIRNGLAWYQQKPGKAPKLLIYNANSLHTGVPSRFSGSGSGTDFTLTISSLQPEDFATYYCEDTSKYPYTFGQGTKLEIK
In test [1], B4 showed a concentration for a half-maximal effect (EC50) of 10.8 nM.

B5: P1AH1062 (5D5 LM4) BCMA arm (antibody)
chain 1: not shown
chain 2: EIVLTQSPGTLSLSPGERATLSCKASQDIDDAINWYQQKPGQAPRLLIYDASLRATGIPDRFSGSGSGTDFTLTISRLEPEDFAVYYCQQSLRTPITFGQGTKLEIKRTVAAPSVFIFPPSDEQLKSGTASVVCLLNNFYPREAKVQWKVDNALQSGNSQESVTEQDSKDSTYSLSSTLTLSKADYEKHKVYACEVTHQGLSSPVTKSFNRGEC
As for B5, the midpoint of the response in test [1], the EC50, lay at 103 nM.
